# Measured values published in the nanobody polyreactivity screen of Harvey et al. (2022).
# Assay: yeast display, Sf9 membrane polyspecificity reagent, FACS + sequencing; frameworks hold sequencing errors
# Procedure, shortened: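 Polyreactivity labels are assigned by the sorting gate from which each nanobody was recovered. The gates were low and high (top ~1%), set on anti-HA fluorescence for expression and streptavidin fluorescence for reagent binding. Before sorting, galactose-induced (36–48 hours) yeast display cells were stained for 1 hour at 4 °C with 10% biotinylated, detergent-solubilized Sf9 membrane reagent.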
row,Sequence,polyreactivity (PSR sort gate)
1,QVQLVESGGGLVQAGGSLRISCAASGSTLRSNAMGWYRQAPGKERELVASISSGGSTSYADSVKGRFPISRDNAKNTVYFQMNSLKPEDTAVLYCAADGTLTLYRYILDYWGQGTQVTVSS,low polyreactivity
2,QVQLVESGGGLVQAGGSLRISCAASGFTFALYAMGWYRQAPGKERELVAAITRRGGSTYYADSVKGRFTISRDNAKNTVYLQMNSLKPEDTAVYNCAKRERAIKVSRYDSHDYWGQGTQVTVSS,high polyreactivity
3,QVQLVESGGGLVQAVGSLRLSCAASGSTFKAYAMGWYRQAPGKERELVAAITKSGGRTYYADSVKGRFTISRDNAKNTVYLQMNSLKPEDTAVYYCAAVFRPDSSAYRYYYLGQGTQVTVSS,high polyreactivity
4,QVQLVESGGGLVQAGGSLRLSCAASGGTFYSYAMGWYRQAPGKEREFVAAITYGGGSTYYADSEKGRFTISRDNAKNSVYLQKNSLKPEDTAVYYCNARRYGSRLGERYYYWGQGTQVTVSS,high polyreactivity
5,QVQLVESGGGLVQAGGSLRLSCAASGFTFTRYAMGWYIQAPGKERELVAAISRRSGGRTYYADSVKGRFTISRDNAKNTVYLQMNSLKPEDTAVYYCAADYSLRSGYEYWGQGTQVTVSS,high polyreactivity
6,QVQLVESGGGLVQAGGSLRLSCAASGRIFSSNVMGWYRQAPGKERELVAAITVTGGSTYYAYSVKGRFTISRDNAKYTVYLLMNSLNPEDTAVYFCAARVKGRFPYDYWGQGSQVTVSS,low polyreactivity
7,QVQLVESGGGLVQAGGSLRLSCAASGFTFAMNAMGWYRQAPGKERELVAAITFSGGSTYADSVKGRFTISRDNAKNTVYLQMNSLKPEDTAVYYCNAGGDGVATGYDYWGQGTQVTVSS,low polyreactivity
8,QVQLVESGGGLVQAGGSLRLSCAASGRIFRDYAMGWYRQAPVKERELVAAITRSGDTTYYADSVKGRFTISRDNAKNTVYLQMNSLKPEDTAVYYCAARYVSRYYVYRGFEYWGQGTQVTVSS,high polyreactivity
9,QVQLVESGGGLVQAGGSLRLSCAASGRTLDKYAMGWYRQAPGKERELVAAITSGGSTNYADSVKGRFTISRDNAKNTVYLQMNSLKPEDTAVYYCAKDLQGNPHFSYGIDFDYWGQGTQVTVSS,low polyreactivity
10,QVELVDSGGGLVQAGGILRLSCPASGSTIPTNVMGWSRQAPGKERECVAAITWSVGSTYYADSVKGRFTISRDNAKNTVYLQMNSLKPEDTAVYYCTADSQVLSAPDDYWGQGTQVTVSS,low polyreactivity
11,QVQLVESGGGLVQAGGSLRLSCAASGIIFESYAMGWYRQAPGKERELVAAISWDGGSTYYADSVKGRFTISRDNAKNTVYLQMNSLKPEDTAVYYCAAESYGIYDGYDYWGQGTQVTVSS,high polyreactivity
12,QVQLVESGGGLVQAGGSLRLSCAASGSTFGFYAMGWYRQAPGKERELVAAITASGDSTYYADSVKGRFTISRDNAKNTVYLQMNSLKPEDTAVYYCNAVWRYYRKRRAGDFGYWGQGTQVTVSS,low polyreactivity
13,QVQLVESGGGLVQAGGSLRLSCAASGRTFFGYAMGWYRQATGKERELVAAINWGGASTYYADSVKGRFTISRDNAKNTVYLQMNSLKPEDTAVYYCAADSVPSRPTYGRYDYWGQGTQVTVSS,low polyreactivity
14,QVQLVESGGGLVQAGGTLSLSCAATGRNFYCYAMGWYRQAHGKERELVAAINWSGGTTYYADSVKGRFTISRDNAKNTVYLQMNSLKPEDTAVYYSAADRILEMGYWGQGTQVTVSS,low polyreactivity
15,QVQLVESGGGLVQAGGSLRLSCAASGSTLFYAMGWYRQAPGKERELHAAISWSGGSTRYADSVKGRFTISRDNAKNTVYLQMNIMKPEDTAVYYCNTYTKHTGYYWKYDYWGQGTQVTVSS,low polyreactivity
16,QVQLVESGGGLVQAGGSLRLSCAASGSILLDNAMGWSRQAPGKERELVAAISLSGGGSTYYADSVKGRFTISRDNAKNTVYLQMNSLKPEATAVYYCAAASTYPLPYDYWGQGTQVTVSS,low polyreactivity
17,QVQLVESGGGLVQAGGSLRLSCAASGLTFYGNAMGWYRQAPGKERELVAAISSSGGTTYYADSVKGRFTISRDNAKNTVYLQMNSLKPEDTAVYYCAARPSGGYESTRTRDYWGQGTQVTVSS,low polyreactivity
18,QVQLVESGGGLVQAGGSLRLSCAASGFTFGSNTMGWYRQAPRKERELVAAITGRGGSTYYADSVKGRFTSSRDNAKNTVYLQMTSLKPEDTAVYYCAARTYPTGASFDYWGQGTQVTVSS,high polyreactivity
19,QVQLVESGGGLVQAGGSLRLSCAASGSTFSDYPMGWYRQAPGKERELVAAISDSGSGTYYADSVKGRFTISRDNAKNTVYLQMNSLKPEDTAVYYCNTDPRFAMDWGQGTQVTVSS,low polyreactivity
20,QVQLVESGGGLVQAGGSLRLTCAASGSTFHLYAMGWYRQAPGKEREFVAAIRGRGGNTYADSVKGRFTISRDNAKNTVYLQMNSLKPEDTAVNYCAAPLLRDLRSPYSYNYWGQGTQVTVSS,low polyreactivity
21,QVQLVESGGGLVQAGGSLRLSCAPSGISIIGYAMGWYRQAPGKVRELVASIDSGGITNYADSVKGRFTISRDNAKNTVYLQMNSLKPEDTAVYDCAARVAYFGGPYYSWGEGTQVTVSS,high polyreactivity
22,QVQLVESGGGLVQAGGSLRLSCAASGSTFYNYALGWYRQAPGKERELVAAIRRSGGSTYYADSVKGRFTISRDNAKNTVYFQMNSLKPEDTAVYYCAASYYTRGYWGQGTQVTVSS,high polyreactivity

row,Sequence,polyreactivity (PSR sort gate)
1,QVQLVESGGGLVQAGGSLRLSCAASGLTFYAYAMGWYRQAPGKERELVAAISWTGGRTYYADSVKGRFTISRDNAKNTVYLQMNSLKPEDTAVYYCAAEVFTTGSFRRYDYWGQGTQVTVSS,high polyreactivity
2,QVQLVESGGGLVQAGGSLRLSCAASGFIFRNYALGWYRQAPGTERELVAAITGRGTSTYYADSVKGRFTISRDNAKNTVYLQMNSLKPEDTAVYYCAARSLALVYRKYDYWGQGTQVTVSS,high polyreactivity
3,QVQLVESGGGLVQAGGSLRLSCAASGSIFAGNAMGWYCHAPGKERELVAAIRYGGTSTYYADSVKGRFTISRDNAKNTVYLQMNSLIPEDTAVYYCAATDWWGYYYWGQGTQVTVSS,high polyreactivity
4,QVQLVESGGGLVQAGGSLRLSCAASGITSWYYAMGWYRQAPGKERELVAAITSDGSTYYADSVKGRFTISRDNAKNTVYLQMNSLKPEDTAVYYCAAERDYWIPDSYLVGMDYWGQGTQVTVSS,low polyreactivity
5,QVQLVESGGGLVQAGGSLRLSCAASGSTFPGNAMGWYRQAPGKERELVAAIRDRGTSTYYADSVKGRFTISRDNAKNTVYLQMNSLNPEDTAVYYCAARSFTADLGYYWGQGTQVTVSS,high polyreactivity
6,QVHLVESAAGLVQAGGSLRLSCAASGSTFIGNAMVWYRQAPGKERELVAAITRSGGTTYYADSVKGRFTISRDNAKNTVYLQMNSLKPEDTAVYYCNKTHFFGYDSWGQGTQVTVSS,low polyreactivity
7,QVQLVESGGGLVQAGGSLRLSCAASGRTLTRYTMGWYRQAPGKERELVATISRSGGNTHYADSVKGRFTISRDNAKNTVYLQMNSLKPEDTAVYYCNAVRYAIYGYDYWGQGTQVTVSS,high polyreactivity
8,QVQLVESGGGLVQAGGSLRLSCAASGRTFWYYARGWYRQAPGKERELVAYADSVKGRFTISRDNAKNTVYLQMNSLKQEDTAVYYCAVGPVVWFSSSLYYTDYYYWGQGTQVTVSS,low polyreactivity
9,QVQLVESGGGLVQAGGSLLLSCAASAFTSDVYAMGWYRQAPGKETELVADISARGGSTYYADSVKGRFTISRDNAKNTVYLQMNSLKPEDTAVYYCAAEVYVGTIGFYADFFYYPVYYWVQGTQVTVSS,low polyreactivity
10,PVQLVESGGGLVQAGGSLSLICAASGRIFYMYAMRCYRPAPAKERELVAAITWSGGSTTYADSVKGRFTISRDNAKNTVYLQMNSLKPEDTSVYYCNAEGWIFPSFSPMDYWGQGTQVTVSS,low polyreactivity
11,QVQLVESGGGLVQAGGSLRLSCAASGYIFVTNAMGWYRQAPGKERELVAAISYRGGSTSYADSVKGRFTISRDNAKNTVYLQMNSLKPEDTAVYYCNAVTFPLGYLRFYYWGQGTQVTVSS,low polyreactivity
12,QVQLVESGGGLVQAGGSLRLSCAASGRIFPYYAMGWYRQAPGKERELVASIRYSAGNTYYADSVKGRFTISRDNAKNTVYLQMNSLKPEDTAVYYCAKLYRSYTIRPVWGRYDYWGQGTQVTVSS,low polyreactivity
13,QVQLVESGGGLVQAGGSLRLSCPASGRTIRPYAMGWYRQAPGKERELVAAITGSGTSTYYADSVKGRFTISRDNAKNTVYLQMNSLKPEDTAVYYCAVAIGYVYKTYYYWGQGTQVTVSS,high polyreactivity
14,QVQLVESGGGLVQAGGSLRLTCAASGNTFYGKTIGWYRQAPGKERELVAAIRFTGGSTTYADSVKGRFTISRDNAKITVYLQLNRLKPEDTAVYYCNTVWVSFSSIYHEYDYWGQGTQVTVSS,low polyreactivity
15,QVQLVESGGGLVQAGGSLRLSCAASGRIFKPYAMGWYRQAPGKERELVASISRRGGSTYYADSVKGRFTISRDNAKNTVYLQMNSLKPEDTAVYDCNASGTYISLGYDYWGQGTQVTVSS,high polyreactivity
16,QVQLVESGGGLVQAGGSLRLSCAASGYTYGTYDMRWYRQAPGKERELVAAFSIGGSTNYADSVKGRFTISRDNAKNTVYLQMNSLKPEDTAVYYCAAEVNVGTLLLSVIVEDGDYWGQGTQVTVSS,low polyreactivity
17,QVQLVESGGGLVQAGGSLRLSCAASGRTFNIYAMGWYRQAPGKVRELVAAISSGGSTYYADSVKGRFTISRDNAKNTVYLQMNSLKPEDTAVYYCAAVEFELRGDYWGQGTQVTVSS,low polyreactivity
18,QVQLVESGGGLVQAGGSLRLSCAASGSTFYPYAMGWYRQAPGKEWEFVADITKRGGSTYYADSVKGRFTISRDNAKNTVYLQMNSLKPEDTAVYYCNAYNYDLVYPQYDYWGQGTQVTVSS,low polyreactivity
19,QDQLVESGGVLVQAGGSLRLSCAASGSTFYYYAMGWYRQAPRKEREFVSSISSRRTSTYYADSVKGRLTISRDNAKNNVYLQMNSLKREDTAVYYCADTQYRSDGWRYDYWGQGTQVTVSS,high polyreactivity
20,QVQLVESGGGLVQAGGSLRLSCAASGSTFTRNAMGWYRQAPGKERELVAAITSSGGSTYYADSVKGRFTISRDNAKNTVYLQMNSLKPEDTAVYYCNADFRTYYDSEYDYWGQGTQVTVSS,low polyreactivity
21,QVQLVESGGGLVQAGGSLRLSCAASGITVDSNAMGWYRQAPGKDRELVAAISSTGSTDYADSVKGRFTISRDNAKNTVYLQMNSLKPEDTAVYYCAADSRYYYYGYKISGDYDSWGQGTQVTVSS,low polyreactivity
